# Data from patent US20230129651A1, “HAIRPIN STRUCTURE NUCLEIC ACID MOLECULES CAPABLE OF MODULATING TARGET GENE EXPRESSION AND USES THEREOF” (KOREA ADVANCED INSTITUTE OF SCIENCE AND TECHNOLOGY, priority 2021, published 2023).
# {Cy5.5} = Cy5.5 fluorophore label
# B1: Cy5.5_PKR-155_155: linear miRNA trigger binding miR-155 and targeting PKR, labeled with Cy5.5 fluorophore; SEQ ID NO 69 (nucleic acid)
# chain: UUAUGUUUCAGGUUCAGGGGGAUUAUGUUUCCAGGUUCAGGGGGAUAUGUGAGGCAGAGAACGA
# modifications: all 2'-O-methyl, 5' {Cy5.5}, backbone not given here
# Assays:
# miR-155 = miR-155 expression in FLT3-ITD mutated AML cell line after treatment with AML therapeutic agents; format: cell-based; settings: NOLM-14; IC50 dose, 37° C., 72 hours
# Method: The FLT3-ITD mutated AML cell line (NOLM-14) was treated with an IC50 dose of cytarabine, azacitidine, decitabine, venetoclax, or gilteritinib, which is used as standard therapeutic agents for AML, at 37° C. for 72 hours, followed by measuring expression levels of miR-155.
# [1] = test system: FLT3 mutated AML cell line MV4-11; assay: Cell viability of MV4-11 after transfection; format: cell-based
# Method: The miRNA triggers were assayed for cytotoxicity and apoptosis induction, using the CCK-8 (Cell Counting Kit-8) (Dojindo, Kumamoto, Japan) according to the manufacturer's instruction. Cells were incubated in 96-well plates (5×10^3 cells/well) at 37° C. for 24 hours under a 5% CO2 atmosphere, followed by transfection. Three days after transfection, the medium was removed. A 10-fold dilution of CCK-8 solution in DMEM was added to the cells which were then incubated at 37° C. for 2 hours. After incubation, absorbance was read at 450 nm on Tecan Infinite M200 pro microplate reader (Mnnedorf, Switzerland).
# A linear miRNA trigger (Mcl-1_155_155 or Bcl-2_155_155) which could bind to miR-155 and target mcl-1 or bcl-2 gene was prepared and transfected into the FLT3 mutated AML cell line MV4-11 which was then measured for cell viability. The results are depicted in FIGS. 31a and 31b. Sequences are listed in Tables 19 and 21 for the linear miRNA triggers prepared above, and in Tables 18 and 19 for the controls Luc-Luc-Luc and luc-155-155, respectively. Every nucleotide of the triggers and the controls were chemically modified with 2′-OMe.
# cleaved PARP = assay: Western blotting of apoptotic marker in HL-60 after siRNA knockdown; format: cell-based; settings: HL-60 cells
# Method: miRNA triggers were transfected into cells in the same manner as in Reference Example 4. After 72 hours, the cells were collected using a cell scraper and lysed with a RIPA buffer (NaCl 150 mM, EDTA 5 mM, Tris 50 mM, NP-40 1.0%, sodium deoxycholate 0.5%, SDS 0.1%). The cell lysate was sonicated 15 times, each for 20 sec, with a halt for 30 sec every sonication. Following centrifugation at 5,000 g for 5 min, the supernatant was taken and used to extract proteins therefrom. A total of 30-40 μg of protein sample was separated in 10-15% SDS-PAGE gel and transferred onto a PVDF membrane through a semi-dry blotting system. The membrane was blocked for 1 hour in 5% skimmed milk and incubated for 2 hours with a 1,000-fold dilution of a primary antibody in, 1% skimmed milk. […] The membrane incubated with the secondary antibody was washed three times with 1×PBST for 10 min each wash, and then reacted with Clarity Western ECL Substrate (#1705061, Bio-Rad), after which images were obtained and analyzed using ChemiDoc (Bio-rad, Hercules, USA). […]
# [2] = FACS detection of Cy5.5 in hematopoietic origin cells of injected mice; format: in vivo, C57BL/6 (B6) mice
# Source text: Day 4 after miRNA trigger injection in Example 6-2, mice in the miRNA trigger-administered test group (N=4) and the PBS-administered control (N=4) were sacrificed and specimens (blood cells) were taken from peripheral blood vessels, the spleen, and the bone marrow (femur blood cells). Erythrocytes were removed using an RBC lysis buffer.
# The cells in peripheral blood sample were gated through three steps (step 1: debris removal, step 2: selection of single blood cell population, step 3: Cy5.5 detection) to select single blood cells of quality. Through FACS, blood cells retaining Cy5.5 were identified. The results are depicted in FIGS. 20a to 20c.
# Spleen-derived hematopoietic cells and bone marrow hematopoietic cells of mice were gated in the foregoing manner and Cy5.5 was detected. The results are depicted in FIGS. 21 and 22. As shown in FIGS. 21a to 21c, 8.7-13.7% of total spleen-derived hematopoietic cells expressed Cy5.5. As in peripheral blood cells, Cy5.5 was detected mainly in lymphocytes and monocytes of the spleen-derived hematopoietic cells.
# [3] = In vivo imaging after tail vein injection of Cy5.5-labeled miRNA trigger; design: species or system C57BL/6 (B6) mice
# Method: As a negative control, PBS was injected at a dose of 200 μl into mice.
# Days 1, 2, and 4 after miRNA trigger injection, in vivo imaging was performed using IVIS 100 (PerkinElmer).
# [4] = test system: MOLM-14, MV4-11 and Hela cells; assay: Fluorescence detection after transfection of Cy5.5-labeled miRNA trigger into cells (IVIS 100); format: cell-based; settings: Lipofectamine
# Method: With the aid of Lipofectamine, the linear miRNA trigger (5′-Cy5.5-miR-155-miR-155-PKR-3′) was transfected into the FLT3-ITD mutant AML cell lines MOLM-14 and MV4-11 and the solid cancer cell line Hela. […] Subsequent animal tests were performed with the trigger.
molecule,measurement,setting,value
Nc1ccn([C@@H]2O[C@H](CO)[C@@H](O)[C@@H]2O)c(=O)n1 [cytarabine],miR-155 expression,miR-155,did not repress miR-155 express
"Mcl-1_155_155: linear miRNA trigger binding miR-155 and targeting mcl-1; SEQ ID NO 105 (UUAUGUUUCAGGUUCAGGGGGAUUAUGUUUCAGGUUCAGGGGGACCGAACUACGUAGC; all 2'-O-methyl, backbone not given here)",apoptosis (cell viability),[1],induce MV4-11 to undergo apoptosis
"siBcl-2: siRNA targeting bcl-2; SEQ ID NO 62 (AUCAAUCUUCAGCACUCUC; listed as RNA, chemistry not given here)",expression of apoptotic marker cleaved PARP,cleaved PARP,upregulated
B1,rate of bone marrow cells expressing Cy5.5,"[2]; bone marrow, day 4",1.0-2.0%
same,Cy5.5 detected in gated lymphocytes,"[2]; bone marrow, lymphocytes gated through 4 steps, day 4",5.4-9.6%
same,Cy5.5 detection in blood cells (FACS profile),[2]; day 4 after injection,"detected in blood cells, especially lymphocytes and monocytes"
same,rate of Cy5.5 detection based on total number of single blood cells,"[2]; peripheral blood, day 4",6.2-15.9%
same,spleen-derived hematopoietic cells expressing Cy5.5,"[2]; spleen, day 4",8.7-13.7%
same,time Cy5.5 fluorescence detected in the mouse body,[3],≥ 4 days
same,toxicity over the period of in vivo imaging,[3],particular toxicity was detected from none of the mice
same,organs in which Cy5.5 was detected,"[3]; Invivofectamine, 120 nM, days 1, 2 and 4","detected in main organs including the liver, the spleen, the bone marrow, and the heart, and the hematopoietic organ"
same,fluorescence in transfected cells,[4],Fluorescence was detected
